Consider 2 molecules from PMC11139201, “RsaL is a self‐regulatory switch that controls alternative biosynthesis of two AHL‐type quorum sensing signals in Pseudomonas aeruginosa PA1201”.

Positions count from the first letter of the chain named.

For this series, the target named is RsaL (Pseudomonas aeruginosa PA1201, UniProt Q9X7H4 1-80). The experiment in a line: EMSA; EMSA: 10 mM Tris-HCl pH 8.0, 1 mM EDTA, 5 mM MgCl2, 50 mM KCl, 2.5% glycerol, 30 ug/ml poly(dI-dC), 0.05% NP-40, room temperature 20 min; footprint: 100 ng probe in 40 ul, 30 min room temperature, DNase I 1 min 25 C. The note with it: protein: recombinant, tags: His (pET28a), chain copies: 2. In general terms: Mobility shift assays separate free from complexed probe on a gel.

B1: PRO-II (dsDNA)
DNA 1: AAATGAGATAGATTTCGGTGAACCCGGACCCTTGCTAGGCTCGAAGAAACGTCCGAAAAGATCAGAGCAATGGCTTCACACGAG
DNA 2: CTCGTGTGAAGCCATTGCTCTGATCTTTTCGGACGTTTCTTCGAGCCTAGCAAGGGTCCGGGTTCACCGAAATCTATCTCATTT
With B1, the binding result (label: Cy5) was “binds”.

B2: PRO-II-p (dsDNA)
DNA 1: B1 DNA 1 with A12G, T13C, T14C, T15C
DNA 2: B1 DNA 2 with A70G, A71G, A72G, T73C
On to B2, for which the binding result is given as “no binding”.
